Consider 2 variants from IntAct's records for PubMed 17399790.

B1: Complement factor H (Homo sapiens), P08603-1 (parent)
chain: MRLLAKIICLMLWAICVAEDCNELPPRRNTEILTGSWSDQTYPEGTQAIYKCRPGYRSLGNVIMVCRKGEWVALNPLRKCQKRPCGHPGDTPFGTFTLTGGNVFEYGVKAVYTCNEGYQLLGEINYRECDTDGWTNDIPICEVVKCLPVTAPENGKIVSSAMEPDREYHFGQAVRFVCNSGYKIEGDEEMHCSDDGFWSKEKPKCVEISCKSPDVINGSPISQKIIYKENERFQYKCNMGYEYSERGDAVCTESGWRPLPSCEEKSCDNPYIPNGDYSPLRIKHRTGDEITYQCRNGFYPATRGNTAKCTSTGWIPAPRCTLKPCDYPDIKHGGLYHENMRRPYFPVAVGKYYSYYCDEHFETPSGSYWDHIHCTQDGWSPAVPCLRKCYFPYLENGYNQNYGRKFVQGKSIDVACHPGYALPKAQTTVTCMENGWSPTPRCIRVKTCSKSSIDIENGFISESQYTYALKEKAKYQCKLGYVTADGETSGSITCGKDGWSAQPTCIKSCDIPVFMNARTKNDFTWFKLNDTLDYECHDGYESNTGSTTGSIVCGYNGWSDLPICYERECELPKIDVHLVPDRKKDQYKVGEVLKFSCKPGFTIVGPNSVQCYHFGLSPDLPICKEQVQSCGPPPELLNGNVKEKTKEEYGHSEVVEYYCNPRFLMKGPNKIQCVDGEWTTLPVCIVEESTCGDIPELEHGWAQLSSPPYYYGDSVEFNCSESFTMIGHRSITCIHGVWTQLPQCVAIDKLKKCKSSNLIILEEHLKNKKEFDHNSNIRYRCRGKEGWIHTVCINGRWDPEVNCSMAQIQLCPPPPQIPNSHNMTTTLNYRDGEKVSVLCQENYLIQEGEEITCKDGRWQSIPLCVEKIPCSQPPQIEHGTINSSRSSQESYAHGTKLSYTCEGGFRISEENETTCYMGKWSSPPQCEGLPCKSPPEISHGVVAHMSDSYQYGEEVTYKCFEGFGIDGPAIAKCLGEKWSHPPSCIKTDCLSLPSFENAIPMGEKKDVYKAGEQVTYTCATYYKMDGASNVTCINSRWTGRPTCRDTSCVNPPTVQNAYIVSRQMSKYPSGERVRYQCRSPYEMFGDEEVMCLNGNWTEPPQCKDSTGKCGPPPPIDNGDITSFPLSVYAPASSVEYQCQNLYQLEGNKRITCRNGQWSEPPKCLHPCVISREIMENYNIALRWTAKQKLYSRTGESVEFVCKRGYRLSSRSHTLRTTCWDGKLEYPTCAKR
partner: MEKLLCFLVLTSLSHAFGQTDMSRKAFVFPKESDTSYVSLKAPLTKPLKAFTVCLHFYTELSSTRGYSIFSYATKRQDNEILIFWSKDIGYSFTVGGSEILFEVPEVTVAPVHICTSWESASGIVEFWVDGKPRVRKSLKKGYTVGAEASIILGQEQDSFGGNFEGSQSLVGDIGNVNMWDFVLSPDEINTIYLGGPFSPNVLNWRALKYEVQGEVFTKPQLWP
B2: Complement factor H (Homo sapiens), P08603-2 (parent)
chain: MRLLAKIICLMLWAICVAEDCNELPPRRNTEILTGSWSDQTYPEGTQAIYKCRPGYRSLGNVIMVCRKGEWVALNPLRKCQKRPCGHPGDTPFGTFTLTGGNVFEYGVKAVYTCNEGYQLLGEINYRECDTDGWTNDIPICEVVKCLPVTAPENGKIVSSAMEPDREYHFGQAVRFVCNSGYKIEGDEEMHCSDDGFWSKEKPKCVEISCKSPDVINGSPISQKIIYKENERFQYKCNMGYEYSERGDAVCTESGWRPLPSCEEKSCDNPYIPNGDYSPLRIKHRTGDEITYQCRNGFYPATRGNTAKCTSTGWIPAPRCTLKPCDYPDIKHGGLYHENMRRPYFPVAVGKYYSYYCDEHFETPSGSYWDHIHCTQDGWSPAVPCLRKCYFPYLENGYNQNYGRKFVQGKSIDVACHPGYALPKAQTTVTCMENGWSPTPRCIRVSFTL
partner: B1 partner

In the first assay the parent is B1. The note with it: with crp_human CRP.
Turning to Y402H, the “effect of a mutation on the interaction” value is recorded as “decreasing interaction strength”.

In the next assay the parent is B2. To be noted: with crp_human CRP.
As for Y402H, the “effect of a mutation on the interaction” value is listed as “decreasing interaction strength”.
